In paper PMC12432892, “Therapeutic applications of interface-mimicking peptides for targeting the SARS-CoV-2 NSP12-NSP8 RdRp complex” (Molecular Therapy, 2025):

Molecular target: SARS-CoV-2 NSP12 (SARS-CoV-2), P0DTD1

B1: N8-Pepα (peptide)
chain: NDALNNIINNARDGCVPLNIIPLTTA
modifications: not checked
- IC50 of inhibition of SARS-CoV-2 RdRp activity in the cell-based minigenome (luciferase) assay; pair blocked: NSP12-NSP8: 8 µM
